Laboratory results from paper PMC12208494, “The zinc metalloprotein MigC impacts cell wall biogenesis through interactions with an essential Mur ligase in Acinetobacter baumannii” (PLOS Pathogens, 2025).

Experiments:
[1] = target: MurD (A1S_0245), recombinant, purified (Acinetobacter baumannii); test: enzyme inhibition curve (HPLC assay of MurD activity); 40 nM MurD; Zn-loaded MigC (1.0 mol equivalent ZnSO4) 0.025-75 µM final, with GTP; enzyme mixture pre-incubated 10 min at 37 °C; 200 µM UMA, 1 mM D-glutamate, 1 mM ATP, 0.1 mg/mL BSA; 25 mM HEPES, 150 mM KCl, 2 mM MgCl2, 2 mM TCEP, pH 7.4, 37 °C; Ki fitted with the maximal inhibition fixed from a global fit
Sequence of MurD (A1S_0245), recombinant, purified (Acinetobacter baumannii) (A3M1C6 whole entry): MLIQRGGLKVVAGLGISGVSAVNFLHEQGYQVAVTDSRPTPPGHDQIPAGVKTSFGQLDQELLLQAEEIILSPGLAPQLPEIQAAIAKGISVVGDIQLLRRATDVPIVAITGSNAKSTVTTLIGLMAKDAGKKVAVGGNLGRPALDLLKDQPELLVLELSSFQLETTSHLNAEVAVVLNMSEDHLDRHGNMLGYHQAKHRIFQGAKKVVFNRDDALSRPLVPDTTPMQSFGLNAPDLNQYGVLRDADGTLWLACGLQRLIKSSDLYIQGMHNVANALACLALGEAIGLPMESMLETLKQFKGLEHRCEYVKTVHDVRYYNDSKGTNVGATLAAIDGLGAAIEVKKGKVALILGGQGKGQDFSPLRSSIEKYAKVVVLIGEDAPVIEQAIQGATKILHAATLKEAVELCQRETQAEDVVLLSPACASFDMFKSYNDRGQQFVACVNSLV

[2] = target: MurD (A1S_0245), recombinant, purified (Acinetobacter baumannii)
[3] = target: MurD (A1S_0245), recombinant, purified (Acinetobacter baumannii); test: enzyme inhibition curve (HPLC assay of MurD activity); as a3 but apo MigC (no Zn) with GTP
[4] = target: MurD (A1S_0245), recombinant, purified (Acinetobacter baumannii); test: enzyme inhibition curve (HPLC assay of MurD activity); as a3 but apo MigC (no Zn) without GTP

Row | maximal inhibition of MurD activity at saturating Zn-MigC (inhibition curves, 0.025-75 µM MigC, HPLC) [2] [%] | Ki [3] [µM] | Ki [4] [µM] | Substance | Ki [1] [µM]
1 | – | – | – | E99A MigC, recombinant, purified (enzyme) | 21
2 | 75 | 43 | 20 | MigC (A1S_0934), recombinant, purified (enzyme) | 32
